Results reported in patent publication US20020142457A1, “Cell having the potentiality of differentiation into cardiomyocytes” (priority 1999, published 2002).
Ends that are not written are not given here.

Columns and labels:
[1] = system: bone marrow cell (BMSC-MesP1); test: Quantitative PCR of genes expressed in myotube-like cells from BMSC-MesP1; type: cell-based, mouse; conditions: BMSC-MesP1, 5-aza-C 3 μM, cytokine 10 ng/ml
Description: Next, RNA was recovered from the thus obtained myotube-like cells, and genes expressing in the myotube-like cells were analyzed by quantitative PCR using the synthetic oligonucleotides shown in SEQ ID NOS:71 to 78. As a result, expression of ANP as a gene specific for a myocardium was accelerated by the forced expression of MesP1.

[2] = system: mouse bone marrow-derived pluripotent stem cells (BMSC); test: Differentiation of BMSC into myotubes, phase-contrast microscope; type: cell-based; conditions: 5-aza-C 3 μM in all dishes, cytokine 10 ng/ml, four weeks after addition of 5-aza-C
Description: The mouse bone marrow-derived pluripotent stem cells (BMSC) having the potential to differentiate into cardiomyocytes were plated into 60-mm culture dishes and 60 mm fibronectin-coated dishes (Becton Dickinson) at a density of 2×10^4 cells/ml and cultured at 33° C. in a 5% CO2-incubator.
On the next day, 5-aza-C was added to each culture medium in a final concentration of 3 μM, followed by culturing with the following 3 different treatments, with addition of PDGF (culture dish A), both PDGF and retinoic acid (culture dish B) or without addition of any compound (culture dish C) (final concentration: PDGF, 10 ng/ml; retinoic acid, 10^−9 M).
On the next day, the medium was replaced with a fresh medium to remove 5-aza-C therefrom. Then, PDGF was added to the culture dish A until the final concentration of PDGF came to be 10 ng/ml, while PDGF and retinoic acid were added to the culture dish B until the final concentrations of PDGF and retinoic acid came to be 10 ng/ml and 10^−9 M, respectively. Two and four days thereafter, the medium was replaced and the PDGF or retinoic acid was further added.
As a result, about 30% of the cells in the culture dish containing 5-aza-C alone differentiated into myotubes, while about 40% of the cells in the culture dish containing PDGF and about 50% of the cells in the culture dish containing PDGF together with retinoic acid differentiated into myotubes. In the three groups of the fibronectin-coated dishes, the ratio of the cells differentiated into myotubes was about 10% higher than in the three groups of the culture dishes.
RNAs were collected from the myotubes thus obtained. And genes expressed in the myotubes were analyzed with quantitative PCR analysis using the synthetic oligonucleotides represented by SEQ ID NOS:71 to 78. As a result, PDGF or retinoic acid promoted the expression of MyoD and fTnI genes relating to a skeletal muscle but not cTnI or ANP specifically relating to a myocardium. Next, mouse bone marrow-derived pluripotent stem cells (BMSC) having the potential to differentiate into cardiomyocytes were inoculated in a 60-mm culture dish at a density of 2×10^4 cells/ml and cultured using an incubator at 33° C. under 5% of CO2.
On the next day, 5-aza-C was added to the liquid culture medium to give a final concentration of 3 μM. Furthermore, five treatments differing from each other were performed by adding FGF-8 to give a final concentration of 10 ng/ml (culture dish D); adding ET-1 to give a final concentration of 10 ng/ml (culture dish E); adding a midkine to give a final concentration of 10 ng/ml (Culture dish F); adding BMP4 to give a final concentration of 10 ng/ml (culture dish G); and adding no compound (culture dish H), followed by culturing.
On the next day, the medium was replaced by a fresh medium to eliminate 5-aza-C therefrom. Then, FGF-8 was added to the culture dish D to give a final concentration of 10 ng/ml; ET-1 was added to the culture dish E to give a final concentration of 10 ng/ml; the midkine was added to the culture dish F to give a final concentration of 10 ng/ml; and BMP4 was added to the culture dish G to give a final concentration of 10 ng/ml, followed by culturing. Two and four days thereafter, the medium was replaced and the FGF-8, ET-1, midkine or BMP4 was further added.
As a result, about 30% of the cells in the culture dish containing 5-aza-C alone differentiated into myotubes, while about 50% of the cells in the culture dishes containing FGF-8, ET-1, midkine or BMP4 differentiated into myotubes respectively.

[3] = system: Nkx2.5/Csx and GATA4 co-forced expressing bone marrow cells (BMSC-Nkx2.5-GATA4); test: Quantitative PCR of genes expressed in myotubes from BMSC-Nkx2.5-GATA4; type: cell-based, mouse; conditions: BMSC-Nkx2.5-GATA4, 5-aza-C 3 μM, cytokine 10 ng/ml
From the text: From the myotubes thus obtained, RNAs were collected and genes expressed in the myotubes were subjected to quantitative PCR analysis using the synthetic oligonucleotides represented by SEQ ID NOS:71 to 78.

[4] = system: Nkx2.5/Csx and GATA4 co-forced expressing bone marrow cells (BMSC-Nkx2.5-GATA4); test: Differentiation of BMSC-Nkx2.5-GATA4 with cytokines, phase-contrast microscope; type: cell-based, mouse; conditions: cytokine 10 ng/ml, four weeks; for cells differentiated into myotubes: BMSC-Nkx2.5-GATA4, 5-aza-C 3 μM in all dishes; for beating cardiomyocytes: BMSC-Nkx2.5-GATA4, 5-aza-C 3 μM
Description: The Nkx2.5/Csx and GATA4 co-forced expressing bone marrow cells (BMSC-Nkx2.5-GATA4) having the potential to differentiate into cardiomyocytes were plated into a 60-mm culture dish at a density of 2×10^4 cells/ml and cultured at 33° C. in a 5% CO2-incubator.
On the next day, 5-aza-C was added to the culture medium to give a final concentration of 3 μM. Furthermore, 5 treatments differing from each other were carried out by adding FGF-8 to give a final concentration of 10 ng/ml (culture dish I); adding ET-1 to give a final concentration of 10 ng/ml (culture dish J); adding midkine to give a final concentration of 10 ng/ml (culture dish K); adding BMP4 to give a final concentration of 10 ng/ml (culture dish L); and adding nothing (culture dish M), followed by culturing.
On the next day, the medium was replaced with a fresh medium to eliminate 5-aza-C. Then, FGF-8 was added to the culture dish I to give a final concentration of 10 ng/ml; ET-1 was added to the culture dish J to give a final concentration of 10 ng/ml; midkine was added to the culture dish K to give a final concentration of 10 ng/ml; and BMP4 was added to the culture dish L to give a final concentration of 10 ng/ml, followed by culturing. Two and four days thereafter, furthermore, the medium was replaced, and the FGF-8, ET-1, midkine or BMP4 was added.
As a result, about 30% of the cells in the culture dish containing 5-aza-C alone were converted into myotubes, while about 50% of the cells in the culture dishes containing FGF-8, ET-1, midkine or BMP4 differentiated into myotubes respectively. On the other hand, the addition of FGF-8, ET-1, midkine or BMP4 caused no increase in beating cardiomyocytes.

Molecule: ET-1: endothelin 1, cytokine (CSCSSLMDKECVYFCHLDIIW; ends and bridges not checked; cysteine pairing not given here; UniProt P05305 53-73, looked up)
- expression of ANP accelerated by the forced expression of MesP1 [1]: did not further accelerate
- cells differentiated into myotubes [2]: about 50%
- expression of cTnI and ANP promoted by forced expression of Nkx2.5/Csx and GATA4 [3]: did not further promote
- cells differentiated into myotubes [4]: about 50%
- beating cardiomyocytes [4]: no increase

B1: midkine: cytokine, amino acid sequence SEQ ID NO:68 (protein, listed as Homo sapiens)
chain: MQHRGFLLLTLLALLALTSAVAKKKDKVKKGGPGSECAEWAWGPCTPSSKDCGVGFREGTCGAQTQRIRCRVPCNWKKEFGADCKYKFENWGACDGGTGTKVRQGTLKKARYNAQCQETIRVTKPCTPKTKAKAKAKKGKGKD
modifications: CDS (1)..(432)
- expression of ANP accelerated by the forced expression of MesP1 [1]: did not further accelerate
- cells differentiated into myotubes [2]: about 50%
- expression of cTnI and ANP promoted by forced expression of Nkx2.5/Csx and GATA4 [3]: did not further promote
- cells differentiated into myotubes [4]: about 50%
- beating cardiomyocytes [4]: no increase

B2: FGF-8: fibroblast growth factor 8, cytokine (protein, UniProt P55075 23-233, looked up)
Fibroblast growth factor 8: QEGPGRGPALGRELASLFRAGREPQGVSQQHVREQSLVTDQLSRRLIRTYQLYSRTSGKHVQVLANKRINAMAEDGDPFAKLIVETDTFGSRVRVRGAETGLYICMNKKGKLIAKSNGKGKDCVFTEIVLENNYTALQNAKYEGWYMAFTRKGRPRKGSKTRQHQREVHFMKRLPRGHHTTEQSLRFEFLNYPPFTRSLRGSQRTWAPEPR
- expression of ANP accelerated by the forced expression of MesP1 [1]: did not further accelerate
- cells differentiated into myotubes [2]: about 50%
- expression of cTnI and ANP promoted by forced expression of Nkx2.5/Csx and GATA4 [3]: did not further promote
- cells differentiated into myotubes [4]: about 50%
- beating cardiomyocytes [4]: no increase

B3: BMP4: bone morphogenic protein 4, cytokine (protein, UniProt P12644 293-408, looked up)
Bone morphogenetic protein 4: SPKHHSQRARKKNKNCRRHSLYVDFSDVGWNDWIVAPPGYQAFYCHGDCPFPLADHLNSTNHAIVQTLVNSVNSSIPKACCVPTELSAISMLYLDEYDKVVLKNYQEMVVEGCGCR
- expression of ANP accelerated by the forced expression of MesP1 [1]: did not further accelerate
- cells differentiated into myotubes [2]: about 50%
- expression of cTnI and ANP promoted by forced expression of Nkx2.5/Csx and GATA4 [3]: did not further promote
- cells differentiated into myotubes [4]: about 50%
- beating cardiomyocytes [4]: no increase
